Results from the domain aggregation screens of Martell et al. (2025).

Test: soluble fraction after stress (log2 fold change); higher = more stays soluble; pooled small domains, quantitative proteomics
Conditions: stress: 50 degC
Outline: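 Quantitative proteomics served as the high-throughput read-out for pooled custom libraries of small protein domains. Each was stressed at 50°C. Aggregation propensity is expressed as the base-two log fold change in soluble protein after stress. A higher value means a larger share of the protein remains in solution.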

Row | Sequence | soluble fraction (log2)
1 | HMSMPTITLQHYKRGSHYYASIIETFRDPVTRKNSSRTLEALGDISEKMKEDPNYLQSLKDRVKALRSD | -0.656
2 | HMSGLLTTSKLAQKHKMKTEPMLEKLTAAGYLEWRDDKHSLTEQGKKAGGQFKTGRFGAYFLWPEDLV | -0.259
3 | HMDDVIEVEGKVVEVLPNTKFIVELANSHKITAHISGKLRMNYIRIMKGDNVTVEMSPYDLTKGRIIWRS | -0.00397
4 | HMQLTPAQHAILAHALEHSDGKIVWFPDNIKGGARKKVLDGLLNRALITTDGTDWFVAAEGYDAMGR | -0.227
5 | HMGTHSAEQVRAAIRAIVAAEDAANPLSDARITELLAMRGIAAARRTVMKYREQLGIPSSAKRRR | -0.343
6 | HMQPAGEGAILRYLSSGAVKGIGPVMAREIVRRFGTDTFRVMEQEPEKLLKVKGITEQRLQTIMESYQD | -0.0857
7 | HMNTEEITYSRFQQMLEAGEISQVSIESNRILILPSEETGIEKVLYTGIINDPGLVERLNSAGVEFRAPIE | -0.00156
8 | HMNLTSSDIQKILSYALLADNSITLNSIEESMASLKLKKMSAEQLIELLEVSSMVLRNTNNSWSIL | -1.95
9 | HMYTDGVPALTDLKKESKPGRRQYVGVEDIPKVLGGLGITILSTSKGLMSGHQAKKKNIGGELIASV | 0.258
10 | HMVAELAEMAENKNITSAQLALAWILKQSENIIPIPGTKRIKYLNENIEAVNVDLSKEDVENIENLLRKYP | -0.0297
11 | HMKKLTGVQKAAILMIALGPDISSSIIKRLPENMVERITYEIANMTKITAQQRNDILKEFMDMTVAQ | -1.02
12 | HMLADTNIHTIALKHRLANEVVEQVRPFLPETATIRAYDNMLILKSDRATLANVEQLIKKLDT | 0.0983
13 | HMPSLGADIRALRKSRKMTLVALADALGRSVGWLSQVERDKSHATIADLGRMAEVLDVSISSFL | -0.27
14 | HMSEEIKVPNFVGSTFEKAQALAQETGLEIARGEDVYSPDQEEGKITSQNPTADSVVSPGKLITVYVSKG | 0.00159
15 | HMGMDALIGRRVFVSEEILPGDTGGRMAVDGDSWRAISVGTASNIPAGTEVRIRGHQSLVLEVEP | -0.116
16 | HMNVPLYIMIESAVEQRLLDGTYQVGKMIPTEFELMDEFSVSRETVRKAINLLVQRGKLEKKRGIGTFVAS | -2.92
17 | HMNKEKLLEMFESMSIIIVQSLEEKEQTEDRIETELFNEAKTPRYSTLTKQDIQSVIRNILITVGV | -1.84
18 | HMHANSDVEQLMQMGIQRLNFQRYSDALLIFNQIIENFPDYAEAWNKRATLHYLLGNLDKSIADIEQTLE | -2.54
19 | HMQTQVEVLVKYVLEDGTVYKEDKVSADIGAILDSGDLPMLSNDMKFIDDFLFYEVKESDNVIERKVAKLV | 0.114
20 | HMRMDKHLWLSLLRLINEGSAEELQTKKDELLQSLERLRITRGPVRGDVLRVVRLIDEELVSRLHLDQR | -2.29
21 | HMPTTRPEAEAHYETHQRYHDLQIDVEGREAFKVATGSLTLVQEFDEKDDYDLSIPTPRSPAILLTT | 0.0218
22 | HMKVSRTAVKLHHANAVEVAKKLQPLFVVGDVQIEPVKDAGIILLKGPASTLADLRESIVQMDHTA | -0.0461
23 | HMSKKQEQALQSREKLLDAATALFAEHGYRDTSVQAIGEKAGVSRGSIFWHFGSKEGLLWAVVERAFTA | 0.265
24 | HMLVVEPSAELKTIIDKTASFVARNGPEFEARIKNEQNNAKFSFLQPNDPFNPYYRAKIVELGGTV | 0.0591
25 | HMSVSATQMDAFVRQLRARLSSADGLDDAARLVRQDLEPFLGRFSDETERDFAAAIEQVRGSIRPVEI | 0.0229
26 | HMEDGRLPPPGTVLRREYKGRAVFVRVLPKGFEFEGEVYRSLSAIAAKVTGSHWNGFRFFGLHE | -1.54
27 | HMKEINFTIEESAKGRLDKVIAENVADLTRSQVQSLIKKGQILVNDAPTTNRYQVKPNDQVIIKLPDPV | 0.339
28 | HMSFPFLMPNLEGLQLDQVRVILEENGLEIGQENYQPDSKFGPGTIINHQPSVDTVVQTGQKVNLQISGTD | 0.112

Row | Sequence | soluble fraction (log2)
29 | HMGPIITKTYNLSYATARDVNDIIKSKKSARGDIVIDTRTNSLIVSDVQEKIDLIDEIVATL | -0.27
30 | HMNLLQAHLLRLESAALLAEVREVDRQLSRWLHPLTPQSDVAIIDERNWEAAVARLTELGVHIEEGRW | -2.92
31 | HMKVNQFEVEGNQRYSTEEIAKASGVSKGDNLFLVNKTETARKLLDELAYVRSVNIKRKLPDTLVITVAE | 0.399
32 | HMQTMTAGERREAILRELEQAQGPVSASALAKRFHVSRQAVVGDVAMLRALNSPIAATPRGYVLTR | -0.0845
33 | HMKFLYQQVYQDIKDKITSAQYQFGDLLPSEREIGEEYHVDRTTVRKAFSLLVDEGLVEKRAGKGSVVIS | -0.594
34 | HMTLHDLFPQAVEFVSEKEMISTAELQRKLMISYNSAAKIIDQLLHVDFIQKSESAGKYSVLIK | -2.31
35 | HMRGDEDTGVWPTPMKRAYIDSLLKGYPTGVTMIVKPPGASHTTKWMILDGANRARALRDFMNDEFMI | -0.163
36 | HMGQLVYPAGVYDVNKSYITDSNSAPYVLDKTDNNYYVLNTQMTWKGTEQDNKTPSQSYEESGGSVWLLFD | -0.235
37 | HMNREENIQIGRDLLERELRKQGMDLQENLRQEVLLDGAKKLGFNNTDDLLAAIGDLKVTPAMFIGKIA | 0.0695
38 | HMIAGHLQIKNDYYYMVLSYTDSDGKRKQPWIPTGLPMKGNKKRAEKMLIETRQTYVPPVSSG | -3.27
39 | HMGYTLDVAHGVTEDMNFSEAFATAREEVGPGGIFYWHGKPYGTYYENEWNAMDEEDKAEYWDAVGRTTA | -0.149
40 | HMGTNTTGWIKIADDWKYIDSNGEYTVNDWRQSADGGWYYLGYNGNMLKNQTTPDGYYVDAEGLWDGMSPA | -0.709
41 | HMSESIFTLYGDEKFEKIRYYLKERGFITLDALARFDFDELLFVPGVSELLISEAKQLFSRYDTSSLAAKE | -0.17
42 | HMNVAELIEGHEAEIAEVLKEFSLLYLMRLADELGEMTKSSSGNGPFQVLKGLVYEEIARRG | -1.09
43 | HMEAELNSLVKTYENMKPKAAAQVFEELDMDVLLDVVERMKEKKLAPILAQVTPTRAKEITYELTQRR | 0.0638
44 | HMNKFRVGDEVEIVKLDKTIQHFGGEEVLSPVGTKTYITYVDVTGKEIEIDKDIYSYHADDLTLV | 0.147
45 | HMLTIQNYFNQVKNIDWEQVPAALSKGHQLVEGASQNNWSAYHSNANIQRVVEAYFQKLNDYLEKN | -0.191
46 | HMPIQLLSEKYMDEHWDELDKDEVSLYQNMSIRFLLKHEDDINWKLYSTNPFISIDTIDFFKDKISWVNI | -2.57
47 | HMDEFHLSERERQILNLLVLGHTYKHIASDLNIAYATVNKHVSNVYAKLRVQSASEAVALAIRKGL | -0.899
48 | HMETGGLAQEAERELALLQEQIAHHEALYRKGTPEISDGAFDELFDRYQELADSLGVPADERIDRA | -0.0378
49 | HMTIPRLPFAFAKRFGIVLDNRPSGFVAAHKEGLLPHVLLEVQRFLGDAYTLEVVSDDDFERILGQVYQT | -3.27
50 | HMRYVVQVATFSSKNNAIRAADDLAGFVVVSNGYYRVRTGPYADRGEANAALAKARKAGYTDAFVDTS | -0.798
51 | HMVIVGGDVIVHYVDTEGKKISDDVVKSGNVGEDYSTDQKTILGYRFKEVQGNTSGKFTDKTQVVTYIYT | 0.404
52 | HMAVGDMISKLRTAANMSQEQFAELFGVTRQSVQKWENSFSVPELEKLIKISKYFDVSLDALVLRSDARVT | -1.06
53 | HMNGPTPEEKLAVVNAEFVRQYGDEYEELELEGEELEEYYQKALNKEDFEYDIPHLPGWDEP | 0.0217
54 | HMESYWVVLRPMAAGTQIGANDLGYRSVALGAAAKNYLAASTNPIGSITRRRLVAGELLQGSSLTDDARA | -0.873
55 | HMNMFDMRKTGARISQLRRAAGLTQAELAEKLGISYQAVSSWERGSNMPDIGKLLDLARILNTTVDALLSA | -0.375
